As a reminder, the Kd is the equilibrium constant for the complex coming apart. Usually Km stands for the substrate concentration at which the rate is half of its maximum.

Results on 1 molecule are retold here after patent US8071348B2, “Protein tyrosine phosphatase substrate-trapping double mutant and uses thereof” (Albert Einstein College of Medicine of Yeshiva University, priority 2002, dated 2011).

Series [1] has as its target T1, Ac-Asp-Ala-Asp-Glu-F2Pmp-Leu-NH2 (Homo sapiens, UniProt P18031, D181A/Q262A).
T1 construct: The catalytic domain of PTP1B (residues 1 to 321) was used for in vitro study; made in house; host or cells: E. coli (pT7-7 plasmids)
T1 sequence (P18031 1-321 D181A/Q262A): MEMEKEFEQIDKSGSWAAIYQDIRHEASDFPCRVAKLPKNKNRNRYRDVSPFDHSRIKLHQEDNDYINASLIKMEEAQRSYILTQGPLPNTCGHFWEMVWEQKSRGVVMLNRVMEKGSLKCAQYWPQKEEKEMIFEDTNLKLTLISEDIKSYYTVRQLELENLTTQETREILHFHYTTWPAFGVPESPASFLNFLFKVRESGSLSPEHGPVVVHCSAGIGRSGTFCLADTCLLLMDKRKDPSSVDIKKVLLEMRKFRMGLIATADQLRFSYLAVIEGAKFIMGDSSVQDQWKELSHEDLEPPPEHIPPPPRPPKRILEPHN
Put plainly: Isothermal titration calorimetry, binding of PTP1B and mutants to F2Pmp peptide. As to conditions: ITC, pH 7.0, ionic strength 0.15 M, 25° C.; read-out: dissociation constant, Kd. (Isothermal titration calorimetry measures the heat released or taken up as one component is titrated into another.)

In series [2] the target is T2, Ac-Asp-Ala-Asp-Glu-F2Pmp-Leu-NH2.
T2 construct: Synthetic hexapeptide printed in three-letter code; also called F2Pmp-containing peptide; non-hydrolyzable substrate analog
T2 peptide: Ac-DADE[F2Pmp]L-NH2
Description: ITC, 25 C, pH 7.0. As for the experimental part:
(§1) All isothermal titration calorimetry experiments were performed using an MCS Isothermal Titration Calorimetry System from Microcal Inc. (Northampton, Mass.). Experiments at pH 7.0 were conducted at 25° C., in 50 mM 3,3-dimethylglutarate buffer containing 1 mM DTT. The ionic strength of the buffer was adjusted to 0.15 M by addition of NaCl. Protein concentration in the calorimeter cell was 27-85 µM, while the ligand concentration in the syringe was 0.37-1 mM.
(§2) A typical titration curve and binding isotherm for the binding of D181A/Q262A to Ac-Asp-Ala-Asp-Glu-F_2Pmp-Leu-NH_2 is shown in FIG. 3. From curve-fitting of the binding isotherms, the stoichiometry for the binding of the peptide to D181A/Q262A was determined to be 1:1.

The target is the same in series [3]. Put plainly: ITC. How it is done: as §1, §2
The target is the same in series [4]. Description: ITC, 25 C, pH 7.0. As for the experimental part:
as §1
The PTP1B samples used in the isothermal titration calorimetry experiments were dialyzed completely against buffer. High-concentration stock solutions were prepared for ligands with distilled water, and adjusted to pH 7.0. […] Protein dilution during titration was determined by titration of buffer into the protein solution. […] The heat of ligand dilution was corrected by subtracting the average heat of injection after saturation.
as §2

Series [5] concerns EGFR^988-998 peptide, DADEpYLIPQQG. Description: Kinetic constants for PTP1B-catalyzed hydrolysis of pTyr-containing EGFR988-998 peptide. As to conditions: EGFR988-998 peptide as substrate; 25° C. and pH 7.0. It counts as biochemical. In short, it runs like this: (§3)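 PTP1B catalytic domain (residues 1–321), wild-type or mutant, expressed in E. coli. Continuous assay at 25° C., pH 7.0, in 50 mM 3,3-dimethylglutarate with 1 mM EDTA (ionic strength 0.15 M). Dephosphorylation followed by absorbance increase at 282 nm or fluorescence at 305 nm to obtain kcat and Km.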

Series [6] concerns the target T3, EGFR^988-998 peptide, DADEpYLIPQQG (Homo sapiens, UniProt P18031, D181A/Q262A).
T3 construct: The catalytic domain of PTP1B (residues 1 to 321) was used for in vitro study; made in house; host or cells: E. coli (pT7-7 plasmids)
T3 sequence (P18031 1-321 D181A/Q262A): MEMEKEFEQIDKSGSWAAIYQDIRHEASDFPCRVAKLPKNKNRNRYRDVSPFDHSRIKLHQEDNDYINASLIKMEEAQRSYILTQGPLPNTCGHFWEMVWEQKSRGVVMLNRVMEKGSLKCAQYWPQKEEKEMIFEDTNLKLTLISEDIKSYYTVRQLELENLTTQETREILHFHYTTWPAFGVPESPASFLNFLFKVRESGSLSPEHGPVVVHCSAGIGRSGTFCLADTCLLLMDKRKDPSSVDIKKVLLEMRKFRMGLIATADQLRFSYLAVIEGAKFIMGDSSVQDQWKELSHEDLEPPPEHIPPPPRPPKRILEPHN
The description is as above. It counts as biochemical. The note with it: EGFR988-998 peptide as substrate. In short, it runs like this: as §3

[ ]: non-standard residue; d: D form. F2Pmp = N[C@@H](Cc1ccc(C(F)(F)P(=O)(O)O)cc1)C(=O)O

B1: PTP1B/D181A/Q262A, catalytic domain (residues 1 to 321) (enzyme, human, UniProt P18031 1-321, looked up)
chain: MEMEKEFEQIDKSGSWAAIYQDIRHEASDFPCRVAKLPKNKNRNRYRDVSPFDHSRIKLHQEDNDYINASLIKMEEAQRSYILTQGPLPNTCGHFWEMVWEQKSRGVVMLNRVMEKGSLKCAQYWPQKEEKEMIFEDTNLKLTLISEDIKSYYTVRQLELENLTTQETREILHFHYTTWPAFGVPESPASFLNFLFKVRESGSLSPEHGPVVVHCSAGIGRSGTFCLADTCLLLMDKRKDPSSVDIKKVLLEMRKFRMGLIATADQLRFSYLAVIEGAKFIMGDSSVQDQWKELSHEDLEPPPEHIPPPPRPPKRILEPHN
notes: range 1-321; Used in vitro (ITC, kinetics); also called PTP1B substrate-trapping double mutant
Consider B1, for which the Kd in series [1] turned out to be 6.8 nM. Further, in series [2], the “fold higher affinity than the D181A mutant” value is roughly 6 fold; the “fold lower Kd than wild-type PTP1B and the C215S mutant” value is roughly 30 fold. Also, the “fold higher substrate-binding affinity than PTP1B/C215S” value in series [3] came to 28 fold. In addition, in series [4], the TΔS came out at 6.6 kcal/mol, the ΔG was -11.1 kcal/mol and the ΔH is -4.5 kcal/mol. In addition, in series [5], the Km came out at 51 ± 4 µM and the kcat result was “(2.7 ± 0.1) × 10^−3 s^−”. For the same molecule, the “kcat, fold lower than D181A” value in series [6] was 24 fold.
